The supplement of paper PMC9112550, “Optimization of the antimicrobial peptide Bac7 by deep mutational scanning” (BMC Biology, 2022)

system: Escherichia coli TOP10; test: shrunken log2 fold change of peptide-encoding DNA abundance (4.5 h post-induction vs induction); higher = less antimicrobial activity (less host growth inhibition); details: time post-induction: 4.5 h; library: site-saturation at positions 5, 18, 19, 20
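Also: peptides expressed intracellularly from a pBAD plasmid library in pooled LB shake-flask culture, induced with 0.3% L-arabinose, DNA abundance read by NGS, three biological replicates, DESeq2 with apeglm shrinkage.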

Sequence	shrunken log2 fold change
RRIRVRPPRLPRPRPRPNFTPRP	0.0054
RRIRIRPPRLPRPRPRPKKFPRP	-0.666
RRIRGRPPRLPRPRPRPFFGPRP	0.188
RRIRFRPPRLPRPRPRPGHVPRP	-0.447
RRIRDRPPRLPRPRPRPMCKPRP	0.108
RRIRQRPPRLPRPRPRPLVMPRP	-0.107
RRIRKRPPRLPRPRPRPLVIPRP	-0.0927
RRIRQRPPRLPRPRPRPFDIPRP	-0.16
RRIRPRPPRLPRPRPRPQFHPRP	-0.3
RRIRIRPPRLPRPRPRPERAPRP	0.761
RRIRCRPPRLPRPRPRPWMKPRP	-0.0192
RRIRQRPPRLPRPRPRPYIGPRP	-0.681
RRIRWRPPRLPRPRPRPWIKPRP	-0.203
RRIRSRPPRLPRPRPRPPMSPRP	-0.0301
RRIRVRPPRLPRPRPRPGSFPRP	-0.122
RRIRTRPPRLPRPRPRPWKEPRP	-0.0407
RRIRKRPPRLPRPRPRPLRIPRP	0.648
RRIRLRPPRLPRPRPRPWGTPRP	-0.169
RRIRGRPPRLPRPRPRPVRGPRP	0.866
RRIRDRPPRLPRPRPRPNGIPRP	0.012
RRIRERPPRLPRPRPRPKVTPRP	-0.114
RRIRNRPPRLPRPRPRPSPYPRP	-0.507
RRIRHRPPRLPRPRPRPKQLPRP	-0.553
RRIRCRPPRLPRPRPRPIIQPRP	-0.465
RRIRSRPPRLPRPRPRPMSYPRP	0.0443

Sequence	shrunken log2 fold change
RRIRNRPPRLPRPRPRPFPHPRP	-0.0462
RRIRERPPRLPRPRPRPGYPPRP	-0.216
RRIRDRPPRLPRPRPRPYYTPRP	-0.817
RRIRIRPPRLPRPRPRPCVCPRP	-0.0463
RRIRYRPPRLPRPRPRPFMHPRP	-0.661
RRIRDRPPRLPRPRPRPHAFPRP	-0.0699
RRIRERPPRLPRPRPRPRIAPRP	-0.246
RRIRNRPPRLPRPRPRPECLPRP	0.254
RRIRRRPPRLPRPRPRPTLSPRP	-0.0436
RRIRFRPPRLPRPRPRPTLRPRP	0.0831
RRIRKRPPRLPRPRPRPHPKPRP	0.386
RRIRMRPPRLPRPRPRPGWAPRP	0.965
RRIRLRPPRLPRPRPRPYAAPRP	-0.36
RRIRYRPPRLPRPRPRPRAYPRP	-0.0333
RRIRHRPPRLPRPRPRPKINPRP	-0.817
RRIRCRPPRLPRPRPRPSTRPRP	-0.119
RRIRQRPPRLPRPRPRPSDMPRP	0.0447
RRIRNRPPRLPRPRPRPIWSPRP	0.0615
RRIRERPPRLPRPRPRPCCRPRP	0.0107
RRIRKRPPRLPRPRPRPLSIPRP	-0.0931
RRIRERPPRLPRPRPRPRQCPRP	0.123
RRIRYRPPRLPRPRPRPFVWPRP	0.119
RRIRTRPPRLPRPRPRPMNQPRP	-0.941
RRIRVRPPRLPRPRPRPEEEPRP	0.0136
RRIRQRPPRLPRPRPRPRWRPRP	0.557

Sequence	shrunken log2 fold change
RRIRIRPPRLPRPRPRPMIIPRP	-0.295
RRIRNRPPRLPRPRPRPMCYPRP	-0.0198
RRIRMRPPRLPRPRPRPLSKPRP	-0.103
RRIRCRPPRLPRPRPRPIYTPRP	-0.234
RRIRCRPPRLPRPRPRPKAFPRP	-0.0921
RRIRGRPPRLPRPRPRPSLMPRP	0.5
RRIRTRPPRLPRPRPRPQWRPRP	0.207
RRIRSRPPRLPRPRPRPWWNPRP	-0.0574
RRIRFRPPRLPRPRPRPVILPRP	-1
RRIRRRPPRLPRPRPRPIFQPRP	0.303
RRIRPRPPRLPRPRPRPWWGPRP	-0.0751
RRIRCRPPRLPRPRPRPPWYPRP	-0.0833
RRIRMRPPRLPRPRPRPINCPRP	-0.0244
RRIRARPPRLPRPRPRPWTDPRP	-0.0701
RRIRTRPPRLPRPRPRPDDSPRP	-1.36
RRIRGRPPRLPRPRPRPRLCPRP	1.19
RRIRCRPPRLPRPRPRPFKYPRP	-0.246
RRIRRRPPRLPRPRPRPQGRPRP	0.544
RRIRFRPPRLPRPRPRPKCFPRP	-0.108
RRIRYRPPRLPRPRPRPTETPRP	-0.00564
RRIRHRPPRLPRPRPRPYCVPRP	-0.154
RRIRCRPPRLPRPRPRPCSYPRP	-0.895
RRIRMRPPRLPRPRPRPGTHPRP	0.056
RRIRNRPPRLPRPRPRPLLQPRP	-0.137
RRIRIRPPRLPRPRPRPQPEPRP	0.0576

Sequence	shrunken log2 fold change
RRIRLRPPRLPRPRPRPSCHPRP	-0.475
RRIRMRPPRLPRPRPRPMLPPRP	0.301
RRIRWRPPRLPRPRPRPYINPRP	-0.536
RRIRTRPPRLPRPRPRPPAAPRP	0.353
RRIRVRPPRLPRPRPRPMHEPRP	-0.044
RRIRMRPPRLPRPRPRPRKRPRP	3
RRIRNRPPRLPRPRPRPSCNPRP	-0.485
RRIRHRPPRLPRPRPRPYGQPRP	-0.00191
RRIRVRPPRLPRPRPRPMPVPRP	0.00602
RRIRFRPPRLPRPRPRPQKQPRP	-0.199
RRIRHRPPRLPRPRPRPARSPRP	0.0188
RRIRVRPPRLPRPRPRPIKRPRP	0.048
RRIRPRPPRLPRPRPRPEWPPRP	0.449
RRIRIRPPRLPRPRPRPLDYPRP	-0.504
RRIRMRPPRLPRPRPRPFPAPRP	0.426
RRIRFRPPRLPRPRPRPILVPRP	-0.152
RRIRLRPPRLPRPRPRPVHDPRP	-0.458
RRIRTRPPRLPRPRPRPFDFPRP	-0.271
RRIRPRPPRLPRPRPRPDGWPRP	0.354
RRIRWRPPRLPRPRPRPCQSPRP	-0.098
RRIRARPPRLPRPRPRPAPEPRP	0.777
RRIRFRPPRLPRPRPRPIFHPRP	-0.295
RRIRTRPPRLPRPRPRPDHIPRP	-0.242
RRIRGRPPRLPRPRPRPPIYPRP	0.132
RRIRGRPPRLPRPRPRPYIMPRP	-0.746

Sequence	shrunken log2 fold change
RRIRMRPPRLPRPRPRPFYIPRP	-0.31
RRIRLRPPRLPRPRPRPNGWPRP	0.044
RRIRMRPPRLPRPRPRPSFIPRP	-0.668
RRIRLRPPRLPRPRPRPFMCPRP	-0.0925
RRIRHRPPRLPRPRPRPWDKPRP	-0.000233
RRIRSRPPRLPRPRPRPWDLPRP	0.056
RRIRERPPRLPRPRPRPQHQPRP	-0.15
RRIRPRPPRLPRPRPRPRCKPRP	0.215
RRIRIRPPRLPRPRPRPIHLPRP	-0.352
RRIRIRPPRLPRPRPRPPAVPRP	0.279
RRIRARPPRLPRPRPRPVIRPRP	-0.055
RRIRTRPPRLPRPRPRPLWYPRP	-0.245
RRIRSRPPRLPRPRPRPWIKPRP	-0.34
RRIRIRPPRLPRPRPRPFYWPRP	-0.12
RRIRIRPPRLPRPRPRPWHQPRP	-0.00186
RRIRDRPPRLPRPRPRPFWPPRP	0.227
RRIRHRPPRLPRPRPRPIIVPRP	-0.0935
RRIRHRPPRLPRPRPRPPHPPRP	0.15
RRIRFRPPRLPRPRPRPFEEPRP	-0.119
RRIRCRPPRLPRPRPRPADFPRP	1.07
RRIRSRPPRLPRPRPRPMTKPRP	0.0651
RRIRARPPRLPRPRPRPTVKPRP	0.143
RRIRFRPPRLPRPRPRPPLPPRP	0.661
RRIRTRPPRLPRPRPRPHHNPRP	-0.795
RRIRDRPPRLPRPRPRPFFFPRP	0.483
